Assay results taken from the supplement of paper PMC5998384.

Key:
HeLa Kyoto [1] = assay: solubility change mitosis vs G1/S (difference of NP-40 vs SDS log2 ratios) (log2 ratio difference); higher = more soluble in mitosis
HeLa Kyoto [2] = assay: thermal stability score vs G1/S (z-score of summed log2 fold changes over temperatures); higher = more thermally stable than in G1/S
HeLa Kyoto [3] = assay: solubility in G1/S (NP-40 vs SDS abundance) (log2 ratio); higher = more soluble; conditions: cell cycle stage: G1/S
HeLa Kyoto [4] = assay: melting temperature (median over replicates), in situ; higher = more thermally stable
[5] = cell cycle stage: early G1 (4.5 h after nocodazole release)
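Throughout, for melting temperature (median over replicates), in situ: HeLa Kyoto cells synchronized by double thymidine or nocodazole block, proteins quantified by TMT10plex mass spectrometry, three independent biological replicates.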
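Throughout, for solubility change mitosis vs G1/S (difference of NP-40 vs SDS log2 ratios): synchronized HeLa Kyoto cells (double thymidine block for G1/S, nocodazole release for mitosis), protein amounts in NP-40 versus SDS lysates quantified by mass spectrometry, three biological replicates.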
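Throughout, for solubility in G1/S (NP-40 vs SDS abundance): HeLa Kyoto cells arrested at G1/S by double thymidine block, proteins quantified by TMT10plex mass spectrometry in mild NP-40 versus SDS extracts, three biological replicates.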
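Throughout, for thermal stability score vs G1/S (z-score of summed log2 fold changes over temperatures): synchronized HeLa Kyoto cells, proteins quantified by TMT10plex mass spectrometry, three biological replicates, mitosis taken 0.5 h after nocodazole release, G1/S directly after double thymidine block.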

Row | Substance | solubility change mitosis (log2) (HeLa Kyoto [1]) | thermal stability score (HeLa Kyoto [2]; [5]) | thermal stability score (HeLa Kyoto [2]; cell cycle stage: mitosis) | solubility in G1/S (log2) (HeLa Kyoto [3]) | melting temperature (HeLa Kyoto [4]; cell cycle stage: G1/S) | melting temperature (HeLa Kyoto [4]; cell cycle stage: mitosis)
1 | MSNRVVCREASHAGSWYTASGPQLNAQLEGWLSQVQSTKRPARAIIAPHAGYTYCGSCAAHAYKQVDPSITRRIFILGPSHHVPLSRCALSSVDIYRTPLYDLRIDQKIYGELWKTGMFERMSLQTDEDEHSIEMHLPYTAKAMESHKDEFTIIPVLVGALSESKEQEFGKLFSKYLADPSNLFVVSSDFCHWGQRFRYSYYDESQGEIYRSIEHLDKMGMSIIEQLDPVSFSNYLKKYHNTICGRHPIGVLLNAITELQKNGMNMSFSFLNYAQSSQCRNWQDSSVSYAAGALTVH [MEMO1] | -0.0409 | -0.361 | -0.452 | 0.029 | 53.7 °C | 54.2 °C
2 | MLLPLLLLLPMCWAVEVKRPRGVSLTNHHFYDESKPFTCLDGSATIPFDQVNDDYCDCKDGSDEPGTAACPNGSFHCTNTGYKPLYIPSNRVNDGVCDCCDGTDEYNSGVICENTCKEKGRKERESLQQMAEVTREGFRLKKILIEDWKKAREEKQKKLIELQAGKKSLEDQVEMLRTVKEEAEKPEREAKEQHQKLWEEQLAAAKAQQEQELAADAFKELDDDMDGTVSVTELQTHPELDTDGDGALSEAEAQALLSGDTQTDATSFYDRVWAAIRDKYRSEALPTDLPAPSAPDLTEPKEEQPPVPSSPTEEEEEEEEEEEEEAEEEEEEEDSEEAPPPLSPPQPASPAEEDKMPPYDEQTQAFIDAAQEARNKFEEAERSLKDMEESIRNLEQEISFDFGPNGEFAYLYSQCYELTTNEYVYRLCPFKLVSQKPKLGGSPTSLGTWGSWIGPDHDKFSAMKYEQGTGCWQGPNRSTTVRLLCGKETMVTSTTEPSRCEYLMELMTPAACPEPPPEAPTEDDHDEL [PRKCSH] | -0.0303 | 0.00878 | 0.443 | 0.337 | 55 °C | 57.4 °C
3 | MFCEKAMELIRELHRAPEGQLPAFNEDGLRQVLEEMKALYEQNQSDVNEAKSGGRSDLIPTIKFRHCSLLRNRRCTVAYLYDRLLRIRALRWEYGSVLPNALRFHMAAEEMEWFNNYKRSLATYMRSLGGDEGLDITQDMKPPKSLYIEVRCLKDYGEFEVDDGTSVLLKKNSQHFLPRWKCEQLIRQGVLEHILS [GINS1] | -0.00378 | -0.0841 | -0.424 | -0.0577 | 52.5 °C | 51.7 °C
4 | MYO9B | 0.00466 | -0.189 | -0.197 | -0.141 | 50.4 °C | 49.6 °C
5 | MAAEAADLGLGAAVPVELRRERRMVCVEYPGVVRDVAKMLPTLGGEEGVSRIYADPTKRLELYFRPKDPYCHPVCANRFSTSSLLLRIRKRTRRQKGVLGTEAHSEVTFDMEILGIISTIYKFQGMSDFQYLAVHTEAGGKHTSMYDKVLMLRPEKEAFFHQELPLYIPPPIFSRLDAPVDYFYRPETQHREGYNNPPISGENLIGLSRARRPHNAIFVNFEDEEVPKQPLEAAAQTWRRVCTNPVDRKVEEELRKLFDIRPIWSRNAVKANISVHPDKLKVLLPFIAYYMITGPWRSLWIRFGYDPRKNPDAKIYQVLDFRIRCGMKHGYAPSDLPVKAKRSTYNYSLPITVKKTSSQLVTMHDLKQGLGPSGTSGARKPASSKYKLKDSVYIFREGALPPYRQMFYQLCDLNVEELQKIIHRNDGAENSCTERDGWCLPKTSDELRDTMSLMIRQTIRSKRPALFSSSAKADGGKEQLTYESGEDEEDEEEEEEEEEDFKPSDGSENEMETEILDYV [GTF3C5] | -0.0211 | 2.34 | 4.79 | -0.0747 | 47.8 °C | 49.4 °C
6 | MAAAAVAAAAAAAAAASLQVLEMESMETAAAGSAGLAAEVRGSGTVDFGPGPGISAMEASGGDPGPEAEDFECSSHCSELSWRQNEQRRQGLFCDITLCFGGAGGREFRAHRSVLAAATEYFTPLLSGQFSESRSGRVEMRKWSSEPGPEPDTVEAVIEYMYTGRIRVSTGSVHEVLELADRFLLIRLKEFCGEFLKKKLHLSNCVAIHSLAHMYTLSQLALKAADMIRRNFHKVIQDEEFYTLPFHLIRDWLSDLEITVDSEEVLFETVLKWVQRNAEERERYFEELFKLLRLSQMKPTYLTRHVKPERLVANNEVCVKLVADAVERHALRAENIQSGTCQHPTSHVSLLPRYGQNMDVIMVIGGVSEGGDYLSECVGYFVDEDRWVNLPHIHNHLDGHAVAVTESYVYVAGSMEPGFAKTVERYNPNLNTWEHVCSLMTRKHSFGLTEVKGKLYSIGGHGNFSPGFKDVTVYNPELDKWHNLESAPKILRDVKALAIEDRFVYIAARTPVDRDTEDGLKAVITCYDTETRQWQDVESLPLIDNYCFFQMSVVNSNFYQTASCCPKSYCLENEEAVRKIASQVSDEILESLPPEVLSIEGAAICYYKDDVFIIGGWKNSDDIDKQYRKEAYRYCAERKRWMLLPPMPQPRCRATACHVRIPYRYLHGTQRYPMPQNLMWQKDRIRQMQEIHRHALNMRRVPSSQIEC [KLHL11] | -0.089 | 0.384 | 0.29 | -0.226 | 51.8 °C | 50.7 °C
